Assay results: patent US20230057012A1 (SCHOLAR ROCK, published 2023)

Tests used:
[1] = target: T1, murine LRRC33-proTGFβ1 complex (mouse; human, UniProt Q8BMT4 20-651, limits assumed); assay: SPR Biacore; Fab
T1 construct: As for m5; also called mLRRC33-proTGFβ1; LLC
Protocol: (§1) Surface plasmon resonance (SPR) was used to measure binding kinetics using a BIACORE® system. […] Experiments were carried out with eight types of LLCs, namely, hLTBP1-proTGFβ1, mLTBP1-proTGFβ1, hLTBP3-proTGFβ1, mLTBP3-proTGFβ1, hGARP-proTGFβ1, mGARP-proTGFβ1, hLRRC33-proTGFβ1 and mLRRC33-proTGFβ1.
(§2) A BIACORE® system was employed to determine the monovalent binding affinity and the kinetic parameters for antigen binding of test antibodies. The binding kinetics were evaluated by surface plasmon resonance using Biacore 8K (GE Healthcare). A Biotin CAP sensor chip was used to capture the biotinylated antigens. […] Multi-cycle kinetics was employed where each analyte concentration was injected in a separate cycle and the sensor chip surface was regenerated after each cycle. All the assays were carried out in freshly prepared 1× HBS-EP+ buffer (10 mM HEPES, 150 mM NaCl, 3 mM EDTA, 0.05% Tween20, pH 7.4). Data for all the analyte concentrations for each interaction were fit globally to a 1:1 binding model to obtain the kinetic parameters. The Sensorgram for 0 nM analyte concentration was used as reference.

[2] = target: T2, human LRRC33-proTGFβ1 complex (human, UniProt Q86YC3 19-650; P01137 30-390, limits assumed); assay: SPR Biacore; Fab
T2 construct: Purified recombinant, biotinylated antigen complex; also called hLRRC33-proTGFβ1; LLC
T2 sequence (Q86YC3 19-650 limits assumed, chain 1 of 2): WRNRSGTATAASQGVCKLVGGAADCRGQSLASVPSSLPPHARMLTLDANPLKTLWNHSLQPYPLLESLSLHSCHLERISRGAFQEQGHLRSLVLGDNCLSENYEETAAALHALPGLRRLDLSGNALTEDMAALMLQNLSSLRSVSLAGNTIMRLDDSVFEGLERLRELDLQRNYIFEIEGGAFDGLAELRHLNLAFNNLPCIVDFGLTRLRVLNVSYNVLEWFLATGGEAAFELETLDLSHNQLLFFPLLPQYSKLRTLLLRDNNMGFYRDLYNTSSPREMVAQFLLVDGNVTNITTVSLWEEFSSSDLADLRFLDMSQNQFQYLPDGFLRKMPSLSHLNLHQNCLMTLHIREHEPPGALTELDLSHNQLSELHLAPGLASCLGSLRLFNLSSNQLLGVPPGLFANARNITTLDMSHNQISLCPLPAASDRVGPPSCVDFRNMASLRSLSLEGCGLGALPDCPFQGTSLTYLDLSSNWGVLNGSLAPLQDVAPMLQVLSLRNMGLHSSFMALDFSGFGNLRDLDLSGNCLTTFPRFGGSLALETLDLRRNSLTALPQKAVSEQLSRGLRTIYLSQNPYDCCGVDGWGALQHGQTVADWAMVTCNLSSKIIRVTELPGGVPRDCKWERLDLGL
T2 sequence (P01137 30-390 limits assumed, chain 2 of 2): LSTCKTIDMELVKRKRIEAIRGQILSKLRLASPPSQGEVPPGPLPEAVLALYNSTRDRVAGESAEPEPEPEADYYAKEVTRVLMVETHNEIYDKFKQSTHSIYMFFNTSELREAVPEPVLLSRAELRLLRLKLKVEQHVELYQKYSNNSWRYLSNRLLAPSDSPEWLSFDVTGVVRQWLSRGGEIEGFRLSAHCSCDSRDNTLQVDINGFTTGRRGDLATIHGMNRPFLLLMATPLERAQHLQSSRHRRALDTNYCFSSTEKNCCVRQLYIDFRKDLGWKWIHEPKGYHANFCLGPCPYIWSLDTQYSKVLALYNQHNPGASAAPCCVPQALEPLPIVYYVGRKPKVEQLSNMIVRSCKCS
Protocol: as §1, §2

[3] = target: T3, human LTBP3-proTGFβ1 complex (human, UniProt Q9NS15 44-1303; P01137 30-390, limits assumed); assay: ELISA, purified hIgG4 titrated from about 0.002 to 100 nM, readout RLU, panel hLTBP3-TGFb1
T3 construct: Purified recombinant, biotinylated antigen complex; also called hLTBP3-proTGFβ1; LLC

[4] = target: T4, human LTBP1-proTGFβ1 complex (human, UniProt Q14766 347-1721; P01137 30-390, limits assumed); assay: ELISA, purified hIgG4 titrated from about 0.002 to 100 nM, readout RLU, panel hLTBP1-TGFb1
T4 construct: also called hLTBP1-proTGFβ1; large latent complex (LLC)
T4 sequence (Q14766 347-1721 limits assumed, chain 1 of 2): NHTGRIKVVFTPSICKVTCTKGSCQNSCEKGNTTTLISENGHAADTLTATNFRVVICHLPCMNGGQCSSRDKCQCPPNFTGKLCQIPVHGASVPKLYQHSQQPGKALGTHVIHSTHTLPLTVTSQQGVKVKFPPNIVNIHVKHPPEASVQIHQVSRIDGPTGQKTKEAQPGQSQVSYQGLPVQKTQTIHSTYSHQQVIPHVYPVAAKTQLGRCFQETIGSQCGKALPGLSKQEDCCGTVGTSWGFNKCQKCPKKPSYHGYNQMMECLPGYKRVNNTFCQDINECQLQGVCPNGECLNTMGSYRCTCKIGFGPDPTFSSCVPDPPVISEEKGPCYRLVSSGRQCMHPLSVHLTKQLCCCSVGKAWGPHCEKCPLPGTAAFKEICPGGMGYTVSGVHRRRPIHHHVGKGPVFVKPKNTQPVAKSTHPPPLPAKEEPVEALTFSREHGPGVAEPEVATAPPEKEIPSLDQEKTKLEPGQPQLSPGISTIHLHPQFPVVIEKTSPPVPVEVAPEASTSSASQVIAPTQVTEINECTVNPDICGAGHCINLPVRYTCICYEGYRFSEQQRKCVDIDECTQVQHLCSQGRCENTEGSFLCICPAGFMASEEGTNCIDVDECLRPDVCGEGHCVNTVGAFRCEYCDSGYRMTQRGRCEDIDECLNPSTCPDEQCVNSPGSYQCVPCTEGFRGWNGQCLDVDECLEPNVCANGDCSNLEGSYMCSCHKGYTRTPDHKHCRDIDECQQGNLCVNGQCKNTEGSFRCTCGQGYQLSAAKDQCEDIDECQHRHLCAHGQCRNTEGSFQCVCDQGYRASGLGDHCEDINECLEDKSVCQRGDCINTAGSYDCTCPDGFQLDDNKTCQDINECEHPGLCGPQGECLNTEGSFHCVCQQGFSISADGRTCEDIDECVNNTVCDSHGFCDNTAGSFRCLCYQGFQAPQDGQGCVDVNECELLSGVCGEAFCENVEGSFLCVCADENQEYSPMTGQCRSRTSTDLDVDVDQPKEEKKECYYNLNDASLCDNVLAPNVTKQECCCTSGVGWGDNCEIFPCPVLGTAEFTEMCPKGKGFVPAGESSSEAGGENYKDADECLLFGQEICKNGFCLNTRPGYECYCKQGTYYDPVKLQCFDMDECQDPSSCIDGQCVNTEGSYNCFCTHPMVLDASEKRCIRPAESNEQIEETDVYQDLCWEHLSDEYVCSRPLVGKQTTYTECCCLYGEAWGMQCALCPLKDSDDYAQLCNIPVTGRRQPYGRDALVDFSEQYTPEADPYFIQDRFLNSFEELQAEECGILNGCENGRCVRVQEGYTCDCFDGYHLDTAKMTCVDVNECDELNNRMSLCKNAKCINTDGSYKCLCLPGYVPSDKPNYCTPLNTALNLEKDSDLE
T4 sequence (P01137 30-390 limits assumed, chain 2 of 2): as the sequence (P01137 30-390 limits assumed, chain 2 of 2) above

[5] = target: T5, murine LTBP1-proTGFβ1 complex (mouse; human, UniProt Q8CG19 339-1712; P01137 30-390, limits assumed); assay: ELISA, purified hIgG4 titrated from about 0.002 to 100 nM, readout RLU, panel mLTBP1-TGFb1
T5 construct: also called mLTBP1-proTGFβ1; LLC
T5 sequence (Q8CG19 339-1712 limits assumed, chain 1 of 2): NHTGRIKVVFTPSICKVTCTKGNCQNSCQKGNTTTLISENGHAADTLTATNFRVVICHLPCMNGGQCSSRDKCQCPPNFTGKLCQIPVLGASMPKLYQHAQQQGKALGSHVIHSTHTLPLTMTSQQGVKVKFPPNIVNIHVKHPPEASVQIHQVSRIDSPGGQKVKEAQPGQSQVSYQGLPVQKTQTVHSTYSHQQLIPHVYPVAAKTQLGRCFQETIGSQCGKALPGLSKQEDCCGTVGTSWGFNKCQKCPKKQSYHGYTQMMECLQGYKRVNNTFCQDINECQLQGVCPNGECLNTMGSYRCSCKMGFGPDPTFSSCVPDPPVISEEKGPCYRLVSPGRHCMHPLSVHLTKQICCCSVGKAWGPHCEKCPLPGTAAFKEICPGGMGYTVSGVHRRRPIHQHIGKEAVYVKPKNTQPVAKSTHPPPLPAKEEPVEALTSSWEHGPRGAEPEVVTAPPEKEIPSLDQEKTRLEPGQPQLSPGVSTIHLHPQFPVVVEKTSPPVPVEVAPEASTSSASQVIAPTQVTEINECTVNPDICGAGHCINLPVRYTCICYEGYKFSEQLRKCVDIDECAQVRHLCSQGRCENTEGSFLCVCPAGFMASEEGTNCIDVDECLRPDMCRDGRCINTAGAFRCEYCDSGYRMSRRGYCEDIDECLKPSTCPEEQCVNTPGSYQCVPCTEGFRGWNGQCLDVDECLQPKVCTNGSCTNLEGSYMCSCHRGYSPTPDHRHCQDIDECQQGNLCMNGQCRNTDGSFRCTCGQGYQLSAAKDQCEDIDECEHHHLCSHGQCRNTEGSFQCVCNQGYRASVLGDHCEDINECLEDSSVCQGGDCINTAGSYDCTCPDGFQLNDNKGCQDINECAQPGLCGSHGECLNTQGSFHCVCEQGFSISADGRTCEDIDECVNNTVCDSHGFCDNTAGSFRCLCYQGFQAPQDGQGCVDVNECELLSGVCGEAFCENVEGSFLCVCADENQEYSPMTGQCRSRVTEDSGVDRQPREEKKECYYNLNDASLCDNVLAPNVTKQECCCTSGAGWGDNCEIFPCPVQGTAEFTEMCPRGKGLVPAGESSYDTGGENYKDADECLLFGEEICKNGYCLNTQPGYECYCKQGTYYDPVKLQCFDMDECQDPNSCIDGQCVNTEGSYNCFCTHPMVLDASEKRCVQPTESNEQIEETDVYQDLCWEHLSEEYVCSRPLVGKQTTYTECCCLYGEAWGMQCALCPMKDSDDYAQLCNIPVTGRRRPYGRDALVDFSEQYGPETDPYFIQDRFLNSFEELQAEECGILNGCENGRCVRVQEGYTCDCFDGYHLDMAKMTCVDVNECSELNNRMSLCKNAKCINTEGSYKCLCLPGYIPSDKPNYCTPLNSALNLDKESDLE
T5 sequence (P01137 30-390 limits assumed, chain 2 of 2): as the sequence (P01137 30-390 limits assumed, chain 2 of 2) above

[6] = target: T6, murine LTBP3-proTGFβ1 complex (mouse; human, UniProt Q61810 41-1245; P01137 30-390, limits assumed); assay: ELISA, purified hIgG4 titrated from about 0.002 to 100 nM, readout RLU, panel mLTBP3-TGFb1
T6 construct: also called mLTBP3-proTGFβ1; LLC

[7] = target: T7, human GARP-proTGFβ1 complex (human, UniProt Q14392 18-627; P01137 30-390, limits assumed); assay: ELISA, purified hIgG4 titrated from about 0.002 to 100 nM, readout RLU, panel hGARP-TGFb1
T7 construct: Purified recombinant, biotinylated antigen complex; also called hGARP-proTGFβ1; LLC

[8] = target: endogenous LTBP-proTGFβ1 of LN229 cells (human); assay: cell-based or functional assay
Sequence of endogenous LTBP-proTGFβ1 of LN229 cells (human) (P01137 30-390): as the sequence (P01137 30-390 limits assumed, chain 2 of 2) above

[9] = target: T8, murine GARP-proTGFβ1 complex (mouse; human, UniProt G3XA59 18-628; P01137 30-390, limits assumed); assay: ELISA, purified hIgG4 titrated from about 0.002 to 100 nM, readout RLU, panel mGARP-TGFb1
T8 construct: As for m5; also called mGARP-proTGFβ1; LLC

[10] = target: T4, human LTBP1-proTGFβ1 complex; assay: SPR (Biacore), binding to Human LTBP1-ProTGFβ1, Fab at 0.625-10 nM
Protocol: as §2
Binding kinetics was evaluated by surface plasmon resonance using a BIACORE® 8K (GE) instrument. Biotinylated antigens were captured on a Biotin CAP chip and the Fab fragments of the antibodies were used as analytes. Sensorgrams for Fab binding at variable concentrations (0.6-10 nM) were globally fit to obtain the kinetic parameters.

[11] = target: T8, murine GARP-proTGFβ1 complex; assay: SPR Biacore; Fab
Protocol: as §1, §2

[12] = target: T3, human LTBP3-proTGFβ1 complex; assay: SPR Biacore; Fab
Protocol: as §1, §2

[13] = target: T5, murine LTBP1-proTGFβ1 complex; assay: SPR Biacore; Fab
Protocol: as §1, §2

[14] = target: T6, murine LTBP3-proTGFβ1 complex; assay: SPR Biacore; Fab
Protocol: as §1, §2

[15] = target: T4, human LTBP1-proTGFβ1 complex; assay: SPR Biacore; Fab
Protocol: as §1, §2

[16] = target: T7, human GARP-proTGFβ1 complex; assay: SPR Biacore; Fab
Protocol: as §1, §2

T1 sequence (Q8BMT4 20-651 limits assumed, chain 1 of 2): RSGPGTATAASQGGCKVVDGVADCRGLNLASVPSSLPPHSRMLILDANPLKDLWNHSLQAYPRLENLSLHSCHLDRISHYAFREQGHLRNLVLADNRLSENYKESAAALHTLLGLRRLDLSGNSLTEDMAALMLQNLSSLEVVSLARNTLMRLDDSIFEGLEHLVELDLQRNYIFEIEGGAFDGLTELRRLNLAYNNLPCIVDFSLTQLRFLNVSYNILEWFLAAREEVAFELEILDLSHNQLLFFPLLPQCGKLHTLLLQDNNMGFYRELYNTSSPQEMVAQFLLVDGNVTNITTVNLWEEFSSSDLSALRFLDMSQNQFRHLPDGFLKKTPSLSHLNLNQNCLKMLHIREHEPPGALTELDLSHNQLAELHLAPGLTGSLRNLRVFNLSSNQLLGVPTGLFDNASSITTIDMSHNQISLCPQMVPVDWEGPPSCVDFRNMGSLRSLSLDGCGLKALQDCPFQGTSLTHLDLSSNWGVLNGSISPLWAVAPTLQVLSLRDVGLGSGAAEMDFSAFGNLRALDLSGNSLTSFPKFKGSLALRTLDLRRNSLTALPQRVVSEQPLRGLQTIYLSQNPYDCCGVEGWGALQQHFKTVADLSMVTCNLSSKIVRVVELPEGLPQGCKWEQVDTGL
T1 sequence (chain, as listed by the source limits assumed, chain 2 of 2): as the sequence (P01137 30-390 limits assumed, chain 2 of 2) above

B1: Ab42 Fab (Fab, V domains shown)
VH: QVQLVESGGGVVQPGRSLRLSCAASGFTFRSYVMHWVRQAPGKGLEWVAVISHEGSLKYYADSVKGRFTISRDNSKNTLYLQMNSLRAEDTAVYYCARPRIAARRGGFGYWGQGTLVTVSS
VL: NFMLTQPHSVSESPGKTVTISCTRSSGNIDNNYVQWYQQRPGSSPTTVIYEDNQRPSGVPDRFSGSIDSSSNSASLTISGLKTEDEADYYCQSYDYDTQGVVFGGGTKLTVL
- Fold difference (affinity relative to Ref) [1]: 74 fold
- Kd [1]: 0.114 nM
- koff [1]: 0.000123 s⁻¹
- kon [1]: 1.08e+06 M⁻¹ s⁻¹
- Fold difference (affinity relative to Ref) [2]: 81 fold
- Kd [2]: 0.123 nM
- koff [2]: 0.000123 s⁻¹
- kon [2]: 1e+06 M⁻¹ s⁻¹

B2: Ab46 hIgG4 (antibody, V domains shown)
VH: EVQLLESGGGLVQPGGSLRLSCAASGFTFADYAMTWVRQAPGKGLEWVSAISGSGAATYFADSVKGRFTISRDNSKNTLYLQMNSLRAEDTAVYYCARVSSGHWDYDYWGQGTLVTVSS
VL: DIQLTQSPSSLSASVGDRVTITCRASQSISSYLNWYQQKPGKAPKLLIYAASGLESGVPSRFSGSGSGTDFTLTISSLQPEDFATYYCQQTYGVPLTFGGGTKVEIK
notes: hIgG4 immunoglobulin; also called Ab46 (mAb)
- EC50 (read off the curve) [3]: ~0.2 nM
- EC50 (read off the curve) [4]: ~0.3 nM
- EC50 (read off the curve) [5]: ~0.2 nM
- EC50 (read off the curve) [6]: ~0.2 nM
- EC50 (read off the curve) [7]: ~0.3 nM
- mAb IC50 (nM); cell-based potency assay [8]: 0.95 nM
- EC50 (read off the curve) [9]: ~0.2 nM

B3: Ab46 Fab (Fab, V domains shown)
VH: EVQLLESGGGLVQPGGSLRLSCAASGFTFADYAMTWVRQAPGKGLEWVSAISGSGAATYFADSVKGRFTISRDNSKNTLYLQMNSLRAEDTAVYYCARVSSGHWDYDYWGQGTLVTVSS
VL: DIQLTQSPSSLSASVGDRVTITCRASQSISSYLNWYQQKPGKAPKLLIYAASGLESGVPSRFSGSGSGTDFTLTISSLQPEDFATYYCQQTYGVPLTFGGGTKVEIK
notes: Fab fragment
- t1/2 [10]: 2.18 h
- Fold difference (affinity relative to Ref) [1]: 95 fold
- Fold difference (affinity relative to Ref) [11]: 69 fold
- Fold difference (affinity relative to Ref) [2]: 118 fold
- Fold difference (affinity relative to Ref) [12]: 72 fold
- Fold difference (affinity relative to Ref) [13]: 123 fold
- Fold difference (affinity relative to Ref) [14]: 91 fold
- Fold difference (affinity relative to Ref) [15]: 134 fold
- Fold difference (affinity relative to Ref) [16]: 53 fold
- fAb IC50 (nM); cell-based potency assay [8]: 0.723 nM
